Test results taken from PMC2685776 (Oncogene, 2009).
Where “and” joins values, the source holds several entries; their conditions need not be identical. Equal values may be shown once.

What was measured:
[1] = molecular target: CBP Kix (UniProt Q92793); settings: cited from earlier work
[2] = molecular target: Kix; settings: ref Zor et al., 2002, cited from earlier work
[3] = molecular target: p53 TAD peptide 10-57 Hepta-(Asp) (human) (UniProt P04637); assay: fluorescence polarisation
[4] = molecular target: p53 TAD peptide 1-57 Hepta-(Ala) (human) (UniProt P04637); assay: fluorescence polarisation

UniProt Q92793, sequence (Q92793 587-666): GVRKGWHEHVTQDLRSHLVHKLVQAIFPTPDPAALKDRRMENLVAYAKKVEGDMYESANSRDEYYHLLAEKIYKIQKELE
CREB, sequence (P16220 whole entry): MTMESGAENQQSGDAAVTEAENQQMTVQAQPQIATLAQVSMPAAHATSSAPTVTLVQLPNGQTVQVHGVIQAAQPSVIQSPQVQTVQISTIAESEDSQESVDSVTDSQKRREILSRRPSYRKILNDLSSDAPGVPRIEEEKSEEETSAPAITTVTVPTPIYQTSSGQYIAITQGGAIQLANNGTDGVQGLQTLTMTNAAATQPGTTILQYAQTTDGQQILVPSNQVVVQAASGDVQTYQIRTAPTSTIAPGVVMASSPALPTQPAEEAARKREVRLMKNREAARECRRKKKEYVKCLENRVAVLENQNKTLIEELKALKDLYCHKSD

For CREB (from UniProt P16220), the Kd [1] is listed as 700 nM.
In the case of “CREB: transcription factor CREB, phosphorylated on Ser133, binding Kix (literature)”, the Kd ([2]; read-out: KD, Kix, CREB phosphorylated at Ser133) is listed as 700 nM and the “fold tighter Kix binding upon phosphorylation of Ser133” value [2] is listed as 150 fold and ~ 150 fold.
Substance “p300 Taz1 domain (from UniProt Q09472 1-2414) (domain or fragment)” has a Kd [3] of 38 nM and a Kd [4] of 560 nM.
